{"source": "patent US20200308241A1", "about": "(published 2020)", "binders": {"B1": {"name": "mGM-CSF-hEGF fusion protein of Example 1 (other)", "chain": "SPITVTRPWKHVEAIKEALNLLDDMPVTLNEEVEVVSNEFSFKKLTCVQTRLKIFEQGLRGNFTKLKGALNMTASYYQTYCPPTPETDCETQVTTYADFIDSLKTFLTDIPFECKKPGQKVPGVGVPGVGNSDSECPLSHDGYCLHDGVCMYIEALDKYACNCVVGYIGERCQYRDLKWWELRHHHHHH", "notes": "The assays call it his6-tagged; also called GM-CSF-EGF conjugate; GM-CSF-EGF fusion protein"}}, "key": {"[1]": {"biological_target": "T1, Purified EGFR (R&D Systems, Minneapolis, Minn.) (Homo sapiens (Human), UniProt P00533 25-645)", "T1 construct": "Bought protein coated on an ELISA plate; also called immobilized EGFR; EGF receptors", "experiment": "ELISA, EGFR on the plate, his6-tagged ligand 0-50 nM, HRP anti-his6 detection", "procedure": "(§1) Purified EGFR (R&D Systems, Minneapolis, Minn.) was diluted in coating buffer (0.2 M sodium carbonate/bicarbonate pH 9.4, 0.5 1 g/mL) and immobilized on an ELISA plate by incubation at 4° C. overnight. […] The peroxidase reaction was stopped 30 min after the addition of 0.5 M H₂SO₄ ([…]/well), and the absorbance was measured at 450 nm with a multichannel microtiter plate reader."}, "[2]": {"biological_target": "T1, Purified EGFR (R&D Systems, …)", "experiment": "EGF-EGFR binding assay", "procedure": "as §1"}}}
{"binder": "B1", "values": [{"measurement": "Kd", "setting": "[1]", "value": "< 5", "unit": "nM"}, {"measurement": "Kd", "setting": "[2]", "value": "~10", "unit": "nM"}]}
